Laboratory results from patent US10125184B2, “Apolipoprotein E polypeptides and their use” (priority 2011, dated 2018).

B1: hEP: human apoE dual-domain peptide: helix 4 of N-terminal domain plus major lipid-binding region; expressed in bacteria (protein)
peptide: EELRVRLASHLRKLRKRLLRDADDLQKRLAVYEEQAQQIRLQAEAFQARLKSWFEPLVEDM

What was measured:
[1] = system: HCVcc-luc; assay: Attachment versus post-attachment inhibition assay; format: cell-based, Hepatitis C virus; conditions: heparin 200 μg/ml, anti-CD81 5 μg/ml, hEP 20 μg/ml, bafilomycin A1 10 nM
Description: FIGS. 5A-5D. hEP inhibits HCV entry at the attachment step. (A) HCVcc-luc was first mixed with either scrambled peptide or hEP-2 (20 μg/ml) for one hour at room temperature. In Group 1, mixed virus was directly added to Huh7.5.1 cells, whereas in Group 2, virus was purified through ultracentrifuge at 28,000×g for 4 hours in order to remove peptide, and then used to infect Huh7.5.1 cells. **p<0.005. (B) The kinetics of hEP- and bafilomycin A1-mediated inhibition were determined by time-of-addition assays, as described in the examples section. Fitted lines represent sigmoidal time-dependent curves (mean of n=3; error bars, s.d.). (C) HCVcc-Luc was added to Huh7.5.1 cells at 4° C. and incubated for 1.5 hrs. Unbound virus was removed by 2 washes with cold media, fresh media was added, and the cells were shifted to 37° C. to allow synchronous infection to proceed. Heparin (200 μg/ml), anti-CD81 monoclonal antibody (5 μg/ml), hEP (20 μg/ml), or bafilomycin A1 (10 nM) were present in the media either continuously, during the 4° C. incubation only (attachment), or during the 37° C. incubation phase only (post-attachment). % Inhibition was calculated as 100-percent infection relative to control infections containing DMSO or an isotype antibody control containing 0.01% sodium azide (for anti-CD81 only) (mean of n=3; error bars, s.d.). (D) The effects of hEP (2.7 μM) or scrambled peptide on HCV binding were determined as described in the examples section. Results were calculated as relative RNA copies with numbers obtained from the scrambled peptide treated wells set to 100 (mean of n=3; error bars, s.d.). **p<0.005.
To investigate the mechanistic action of hEP, three sets of experiments were conducted. First, hEP-2 (SEQ ID NO: 9) or scrambled peptide-treated HCVcc were purified through ultracentrifugation to remove the peptide and then used to infect naïve Huh7.5.1 cells. […] Second, to determine the kinetics of inhibition, a time-of-addition experiment was conducted. HCV remained sensitive to bafilomycin A1, a fusion inhibitor that prevents endosome acidification, until 3 hours after the 37° C. temperature shift (FIG. 5B), which is consistent with previous reports (Koutsoudakis et al., J Virol 2006; 80:5308-5320). […] In order to determine whether hEP-2 (SEQ ID NO: 9) blocks infection at the initial attachment step or a downstream event in the HCV entry process, hEP-2 (SEQ ID NO: 9) was either added together with HCVcc to cells during the 4° C. attachment step only, and then removed prior to shifting the temperature to 37° C., or added only after the temperature shift. As a positive control, hEP-1 was present during the entire course of the experiment. […] Finally, the direct binding of virions to cell surface was measured using a real-time PCR based assay.

[2] = system: DENY (Thailand 16681); assay: Dengue virus infection of Huh7.5.1 cells (TCID50); format: cell-based
[3] = system: CLDN1; assay: Immunoblot of CLDN1; format: cell-based
Description: (§1) FIGS. 4A-4C. (A) Huh7.5.1 cells seeded in a 12-well plate were treated with hEP-2 (20 μg/ml) for indicated time periods. Cells were stained with a mouse IgG (istotype control) or the anti-LDLR antibody followed by flow cytometric analysis. An overlay of 7 histograms is presented and the Δ median fluorescence intensity (ΔMFI, LDLR stain minus isotype control stain) of each sample is indicated to the upper right of the figure. (B) Cells were stained with anti-CD81 antibody and analyzed similarly as in A. (C) Immunonblots of SR-BI, CLDN1, and OCLN in the presence of hEP-2 or scrambled peptide.

[4] = system: OCLN; assay: Immunoblot of OCLN; format: cell-based
Description: as §1

[5] = system: HCVcc-luc; assay: Anti-HCV activity after pre-incubation of the peptide in cell culture; format: cell-based, Hepatitis C virus; conditions: 20 μg/ml, 24 hours in culture before HCVcc-luc

| Molecule | Inhibition when present after the temperature shift only (post-attachment) [1] | Inhibition when present during the 4° C. attachment step only [1] | Effect on infectivity of DENY [2] | Effect on level of CLDN1 [3] | Effect on level of OCLN [4] | Anti-HCV activity after being left in the culture [5] |
| --- | --- | --- | --- | --- | --- | --- |
| EELRVRLASHLRKLRKRLLRDADDLQKRLAVYEEQAQQIRLQAEAFQARLKSWFEPLVEDM [hEP-1] | very little inhibition | strongly inhibited | – | – | – | – |
| B1 | – | – | did not affect the infectivity | did not affect | did not affect | largely retained |
